Earlier results as cited in patent US6759384B1, “Factor Xa inhibitors” (Aventis Pharmaceuticals Inc., priority 1994, dated 2004).

Target: factor Xa
Conditions: background section

B1: ATS: antistasin, protein inhibitor of factor Xa isolated from the leech Haementerin officinalis, 119 amino acids (protein, UniProt P15358 18-136, looked up)
Antistasin: QGPFGPGCEEAGCPEGSACNIITDRCTCSGVRCRMHCPHGFQRSRYGCEFCKCRLEPMKATCDISECPEGMMCSRLTNKCDCKIDINCRKTCPNGLKRDKLGCEYCECRPKRKLIPRLS
- Ki: 0.05 nM
